{"source": "IntAct's records for PubMed 30488537", "parents": {"B1": {"name": "Prelamin-A/C (Homo sapiens), P02545 (parent)", "chain": "METPSQRRATRSGAQASSTPLSPTRITRLQEKEDLQELNDRLAVYIDRVRSLETENAGLRLRITESEEVVSREVSGIKAAYEAELGDARKTLDSVAKERARLQLELSKVREEFKELKARNTKKEGDLIAAQARLKDLEALLNSKEAALSTALSEKRTLEGELHDLRGQVAKLEAALGEAKKQLQDEMLRRVDAENRLQTMKEELDFQKNIYSEELRETKRRHETRLVEIDNGKQREFESRLADALQELRAQHEDQVEQYKKELEKTYSAKLDNARQSAERNSNLVGAAHEELQQSRIRIDSLSAQLSQLQKQLAAKEAKLRDLEDSLARERDTSRRLLAEKEREMAEMRARMQQQLDEYQELLDIKLALDMEIHAYRKLLEGEEERLRLSPSPTSQRSRGRASSHSSQTQGGGSVTKKRKLESTESRSSFSQHARTSGRVAVEEVDEEGKFVRLRNKSNEDQSMGNWQIKRQNGDDPLLTYRFPPKFTLKAGQVVTIWAAGAGATHSPPTDLVWKAQNTWGCGNSLRTALINSTGEEVAMRKLVRSVTVVEDDEDEDGDDLLHHHHGSHCSSSGDPAEYNLRSRTVLCGTCGQPADKASASGSGAQVGGPISSGSSASSVTVTRSYRSVGGSGGGSFGDNLVTRSYLLGNSSPRTQSPQNCSIM", "partner": "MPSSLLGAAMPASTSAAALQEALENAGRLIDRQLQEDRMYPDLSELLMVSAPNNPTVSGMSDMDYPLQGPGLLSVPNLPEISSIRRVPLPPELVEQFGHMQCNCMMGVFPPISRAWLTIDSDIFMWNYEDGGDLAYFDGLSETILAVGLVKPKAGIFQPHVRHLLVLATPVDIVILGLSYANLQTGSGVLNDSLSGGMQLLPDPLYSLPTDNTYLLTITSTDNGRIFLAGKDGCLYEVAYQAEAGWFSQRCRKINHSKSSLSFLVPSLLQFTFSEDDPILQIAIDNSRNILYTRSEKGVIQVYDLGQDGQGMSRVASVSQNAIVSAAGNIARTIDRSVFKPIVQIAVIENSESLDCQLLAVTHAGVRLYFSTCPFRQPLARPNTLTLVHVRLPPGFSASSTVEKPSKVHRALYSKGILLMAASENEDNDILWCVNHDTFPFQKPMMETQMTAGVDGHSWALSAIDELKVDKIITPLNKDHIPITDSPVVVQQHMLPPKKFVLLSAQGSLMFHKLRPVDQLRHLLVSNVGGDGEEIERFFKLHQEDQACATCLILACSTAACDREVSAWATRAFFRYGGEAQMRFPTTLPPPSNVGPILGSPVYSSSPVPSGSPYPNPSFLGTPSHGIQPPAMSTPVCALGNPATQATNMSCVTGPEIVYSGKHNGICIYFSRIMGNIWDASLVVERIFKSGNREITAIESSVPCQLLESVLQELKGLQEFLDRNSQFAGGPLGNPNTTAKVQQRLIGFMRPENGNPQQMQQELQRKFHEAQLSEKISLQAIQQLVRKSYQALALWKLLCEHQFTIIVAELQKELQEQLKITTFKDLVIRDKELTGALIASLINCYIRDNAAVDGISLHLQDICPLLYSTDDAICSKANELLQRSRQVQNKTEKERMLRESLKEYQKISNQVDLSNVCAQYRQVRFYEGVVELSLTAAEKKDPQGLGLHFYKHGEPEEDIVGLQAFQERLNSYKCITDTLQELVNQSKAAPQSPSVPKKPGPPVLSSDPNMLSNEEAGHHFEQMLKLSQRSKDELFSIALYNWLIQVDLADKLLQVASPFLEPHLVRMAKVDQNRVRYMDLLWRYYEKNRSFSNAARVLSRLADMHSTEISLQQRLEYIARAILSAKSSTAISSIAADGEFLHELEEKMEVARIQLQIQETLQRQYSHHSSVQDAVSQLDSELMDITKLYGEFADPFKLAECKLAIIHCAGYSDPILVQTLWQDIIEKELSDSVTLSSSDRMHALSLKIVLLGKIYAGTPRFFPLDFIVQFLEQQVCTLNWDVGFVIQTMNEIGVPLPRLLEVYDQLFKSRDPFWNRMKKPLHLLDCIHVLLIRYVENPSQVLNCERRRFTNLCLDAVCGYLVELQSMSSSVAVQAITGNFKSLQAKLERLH"}}, "data": [{"variants_of": "B1", "conditions": "with nu155_human NUP155, O75694", "values": [{"variant": "R399C", "effect of a mutation on the interaction": "decreasing interaction strength"}]}, {"variants_of": "B1", "conditions": "with nu155_human NUP155, O75694", "remark": "another data set of the same source", "values": [{"variant": "R399C", "effect of a mutation on the interaction": "with no effect"}]}]}
